Results on two molecules are retold here after PMC10397247.

Assay in all cases: two-hybrid library CCNG1;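 also: natural log of median RNA to DNA barcode read ratio; higher means stronger binding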
Assay [1] deals with T1, 4H570-bA.
T1 chain: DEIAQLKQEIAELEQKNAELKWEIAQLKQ

Assay [2] concerns the target T2, 4H3129-bA.
T2 chain: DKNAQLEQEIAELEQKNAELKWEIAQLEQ

Assay [3] deals with T3, 4H584-bA.
T3 chain: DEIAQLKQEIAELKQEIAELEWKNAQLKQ

For assay [4], the target named is T4, 4H3172-bA.
T4 chain: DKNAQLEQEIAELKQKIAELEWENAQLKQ

For assay [5], the target named is T5, 4H3974-bA.
T5 chain: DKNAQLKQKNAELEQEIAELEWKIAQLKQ

The target in assay [6] is T6, 4H850-bA.
T6 chain: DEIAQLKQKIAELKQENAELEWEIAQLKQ

Assay [7] deals with T7, 4H1710-bA.
T7 chain: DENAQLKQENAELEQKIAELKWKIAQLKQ

The target of assay [8] is T8, 4H1985-bA.
T8 chain: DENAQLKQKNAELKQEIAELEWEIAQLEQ

In assay [9] the target is T9, 4H1804-bA.
T9 chain: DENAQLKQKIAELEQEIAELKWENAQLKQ

Assay [10] has as its target T10, 4H3631-bA.
T10 chain: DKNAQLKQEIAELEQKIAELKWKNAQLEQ

Assay [11] concerns the target T11, 4H1393-bA.
T11 chain: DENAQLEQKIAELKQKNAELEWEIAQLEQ

Assay [12] has as its target T12, 4H619-bA.
T12 chain: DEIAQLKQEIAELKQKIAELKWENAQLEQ

The target of assay [13] is T13, 4H754-bA.
T13 chain: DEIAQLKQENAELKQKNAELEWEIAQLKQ

Assay [14] deals with T14, 4H906-bA.
T14 chain: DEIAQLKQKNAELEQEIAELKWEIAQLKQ

For assay [15], the target named is T15, 4H3638-bA.
T15 chain: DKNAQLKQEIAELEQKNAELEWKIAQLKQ

The target of assay [16] is T16, 4H1629-bA.
T16 chain: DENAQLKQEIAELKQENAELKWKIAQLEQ

In assay [17] the target is T17, 4H3297-bH.
T17 chain: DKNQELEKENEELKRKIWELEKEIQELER

In assay [18] the target is T18, 4H3817-bA.
T18 chain: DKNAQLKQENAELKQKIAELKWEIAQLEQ

Assay [19] has as its target T19, 4H1449-bA.
T19 chain: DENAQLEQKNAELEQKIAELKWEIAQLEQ

The target in assay [20] is T20, 4H3414-bA.
T20 chain: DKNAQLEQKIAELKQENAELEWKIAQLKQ

For assay [21], the target named is T21, 4H570-bN.
T21 chain: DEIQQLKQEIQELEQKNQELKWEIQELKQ

Assay [22] concerns the target T22, 4H2576-bA.
T22 chain: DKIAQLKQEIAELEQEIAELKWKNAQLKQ

Assay [23] deals with T23, 4H462-bA.
T23 chain: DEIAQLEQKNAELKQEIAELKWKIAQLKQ

The target of assay [24] is T24, 4H72-bA.
T24 chain: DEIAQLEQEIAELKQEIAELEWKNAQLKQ

Assay [25] addresses T25, 4H3843-bA.
T25 chain: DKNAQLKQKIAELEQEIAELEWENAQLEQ

For assay [26], the target named is T26, 4H1446-bA.
T26 chain: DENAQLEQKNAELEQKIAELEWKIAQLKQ

Assay [27] addresses T27, 4H687-bA.
T27 chain: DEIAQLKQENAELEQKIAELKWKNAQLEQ

The target in assay [28] is T28, 4H4001-bA.
T28 chain: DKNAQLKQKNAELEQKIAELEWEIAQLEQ

Assay [29] concerns the target T29, 4H3782-bA.
T29 chain: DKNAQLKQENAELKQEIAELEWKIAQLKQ

The target in assay [30] is T30, 4H2667-bA.
T30 chain: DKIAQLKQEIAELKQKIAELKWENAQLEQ

Assay [31] addresses T31, 4H568-bA.
T31 chain: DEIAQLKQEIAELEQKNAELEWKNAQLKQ

Assay [32] deals with T32, 4H331-bA.
T32 chain: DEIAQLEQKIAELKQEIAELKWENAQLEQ

The target in assay [33] is T33, 4H3606-bA.
T33 chain: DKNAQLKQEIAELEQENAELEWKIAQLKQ

The target in assay [34] is T34, 4H953-bA.
T34 chain: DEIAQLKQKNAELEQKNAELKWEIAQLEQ

For assay [35], the target named is T35, 4H3189-bA.
T35 chain: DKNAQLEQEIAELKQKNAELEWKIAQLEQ

The target in assay [36] is T36, 4H607-bA.
T36 chain: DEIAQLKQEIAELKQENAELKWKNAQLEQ

Assay [37] addresses T37, 4H967-bA.
T37 chain: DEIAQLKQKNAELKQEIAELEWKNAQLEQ

Assay [38] has as its target T38, 4H370-bA.
T38 chain: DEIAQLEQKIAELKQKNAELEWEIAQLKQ

For assay [39], the target named is T39, 4H3855-bA.
T39 chain: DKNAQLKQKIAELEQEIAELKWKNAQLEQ

For assay [40], the target named is T40, 4H918-bA.
T40 chain: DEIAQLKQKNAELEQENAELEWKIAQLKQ

Assay [41] addresses T41, 4H2610-bA.
T41 chain: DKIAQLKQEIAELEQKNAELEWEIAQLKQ

Assay [42] has as its target T42, 4H1845-bA.
T42 chain: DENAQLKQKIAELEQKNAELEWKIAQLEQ

Assay [43] concerns the target T43, 4H797-bA.
T43 chain: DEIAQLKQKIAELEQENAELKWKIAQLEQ

Assay [44] has as its target T44, 4H2697-bA.
T44 chain: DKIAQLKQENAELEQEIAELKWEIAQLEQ

For assay [45], the target named is T45, 4H883-bA.
T45 chain: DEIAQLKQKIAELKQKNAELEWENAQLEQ

The target in assay [46] is T46, 4H1369-bA.
T46 chain: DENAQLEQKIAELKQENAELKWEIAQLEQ

B1: 4H1393-bA (peptide)
chain: DENAQLEQKIAELKQKNAELEWEIAQLEQ
Regarding B1, the interaction score in assay [1] is -0.941; in assay [2], -0.0989; in [3], -1.22; in assay [4], -1.3; in [5] it was -0.626; in [6], -0.951. Also, the interaction score in assay [7] was -1.72; in assay [8], -1.7; in assay [9] it was -1.14; in assay [10], -0.847; in assay [11], -1.08; in [12], -1.63. Also, the interaction score is -1.58 in assay [13]; -1.12 in assay [14]; 1.8 in assay [15]; -1.57 in assay [16]; -0.857 in assay [17]; -1.23 in assay [18]. Also, the interaction score in assay [19] is -1.31; in assay [20], 0.166.

B2: 4H1369-bA (peptide)
chain: DENAQLEQKIAELKQENAELKWEIAQLEQ
Regarding B2, the interaction score in assay [21] is 0.413; in [22], -0.209; in assay [23] it was -0.339; in [24], -1.2; in assay [25], -0.634; in assay [26], -0.956. Moreover, the interaction score in [27] was -0.0949; in [28], -0.513; in [29], -0.939; in [30] it was -0.912; in assay [31], -1.77; in assay [32], -0.963. The interaction score in [33] is 2.35; in assay [34], -1.23; in assay [35] it was -0.843; in assay [36], -1.2; in [37], -1.41; in assay [38] it was -1.03. In addition, the interaction score in assay [39] was -1.08; in [40], -1.28; in assay [41], -0.708; in [42], -1.43; in assay [43], -0.836; in [44] it was -0.782. For the same molecule, the results for the interaction score in assay [45] and in assay [46] were -1.53 and -0.294, respectively.
